US20120321641A1 (TORAY INDUSTRIES, published 2012)

T1: human CAPRIN-1 protein on human cancer cells and in human cancer tissues (human, UniProt Q14444 2-709)
T1 construct: whole, on cells; Endogenous protein of the cell lines and tissue arrays; also called CAPRIN-1 protein expressed on the cell membrane surfaces of human cancer cell lines
T1 sequence (looked up): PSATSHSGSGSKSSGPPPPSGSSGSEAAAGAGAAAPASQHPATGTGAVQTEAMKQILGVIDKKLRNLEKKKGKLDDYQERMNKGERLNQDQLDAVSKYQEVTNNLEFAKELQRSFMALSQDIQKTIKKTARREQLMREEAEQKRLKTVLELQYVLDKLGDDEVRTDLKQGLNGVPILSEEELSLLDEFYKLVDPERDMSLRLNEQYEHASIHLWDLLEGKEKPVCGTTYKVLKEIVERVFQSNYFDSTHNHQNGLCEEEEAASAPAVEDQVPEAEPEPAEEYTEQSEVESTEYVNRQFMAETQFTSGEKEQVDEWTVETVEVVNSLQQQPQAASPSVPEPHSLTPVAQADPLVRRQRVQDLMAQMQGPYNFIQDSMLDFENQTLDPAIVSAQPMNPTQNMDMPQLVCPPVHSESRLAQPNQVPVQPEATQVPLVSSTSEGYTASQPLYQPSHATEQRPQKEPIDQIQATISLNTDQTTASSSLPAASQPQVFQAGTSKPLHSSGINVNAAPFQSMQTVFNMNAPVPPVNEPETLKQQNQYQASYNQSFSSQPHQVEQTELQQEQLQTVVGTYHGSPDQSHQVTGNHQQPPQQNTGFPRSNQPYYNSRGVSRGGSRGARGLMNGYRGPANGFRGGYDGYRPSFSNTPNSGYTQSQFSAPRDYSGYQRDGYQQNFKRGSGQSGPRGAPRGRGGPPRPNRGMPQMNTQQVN

T2: recombinant human CAPRIN-1 protein having the amino acid sequence represented by SEQ ID NO: 2 (human, UniProt Q14444 2-709)
T2 construct: The His-tag was cleaved off with enterokinase; also called antigen protein (human CAPRIN-1)
T2 sequence: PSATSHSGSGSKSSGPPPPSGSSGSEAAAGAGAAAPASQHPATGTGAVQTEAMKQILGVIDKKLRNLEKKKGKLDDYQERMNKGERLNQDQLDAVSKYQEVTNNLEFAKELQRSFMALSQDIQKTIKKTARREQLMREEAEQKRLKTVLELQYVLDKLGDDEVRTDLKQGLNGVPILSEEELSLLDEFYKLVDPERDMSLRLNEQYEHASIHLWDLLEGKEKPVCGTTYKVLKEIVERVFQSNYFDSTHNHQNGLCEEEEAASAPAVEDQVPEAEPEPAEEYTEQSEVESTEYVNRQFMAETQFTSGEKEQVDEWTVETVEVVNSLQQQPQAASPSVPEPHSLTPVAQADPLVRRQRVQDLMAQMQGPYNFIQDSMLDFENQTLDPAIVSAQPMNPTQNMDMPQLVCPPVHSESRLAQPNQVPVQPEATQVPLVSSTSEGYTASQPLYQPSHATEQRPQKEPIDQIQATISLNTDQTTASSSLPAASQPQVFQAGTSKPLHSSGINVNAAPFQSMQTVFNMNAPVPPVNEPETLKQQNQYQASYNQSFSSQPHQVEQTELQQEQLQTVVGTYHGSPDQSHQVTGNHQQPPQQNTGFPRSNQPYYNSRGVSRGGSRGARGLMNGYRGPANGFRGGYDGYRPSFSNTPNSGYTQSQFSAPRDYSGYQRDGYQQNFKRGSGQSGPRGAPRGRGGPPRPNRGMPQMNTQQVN


Tests used:
[1] = target: T1, human CAPRIN-1 protein on human cancer …; assay: immunohistochemical staining of paraffin-embedded human cancer tissue arrays
Experimental: After 3 hours of treatment of the human breast cancer tissue array at 60° C., the array was placed in a staining bottle filled with xylene, followed by xylene replacement being repeated three times every 5 minutes. Next, a similar procedure was performed with ethanol and PBS-T instead of xylene. The human breast cancer tissue array was placed in a staining bottle filled with 10 mM citrate buffer (pH 6.0) containing 0.05% Tween20. After 5 minutes of treatment at 125° C., the array was left to stand at room temperature for 40 minutes or more. Excess water around the sections was removed with Kimwipes, the sections were circled with a DAKOPEN, and Peroxidase Block (DAKO) was added dropwise in appropriate amounts. After left to stand at room temperature for 5 minutes, the array was placed in a staining bottle filled with PBS-T, followed by PBS-T replacement being repeated three times every 5 minutes. As a blocking solution, a PBS-T solution containing 10% FBS was placed on the array, and then the array was left to stand in a moist chamber at room temperature for 1 hour. Next, a solution of the monoclonal antibody #1 of 10 μg/ml adjusted with a PBS-T solution containing 5% FBS, which reacts with cancer cell surfaces and had been prepared in Example 4, was placed on, and the array was left to stand overnight in a moist chamber at 4° C. […]

[2] = target: T2, recombinant human CAPRIN-1 protein …; assay: ELISA; CAPRIN-1 protein coated at 1 ug/ml, hybridoma culture supernatant, HRP anti-chicken IgY
Experimental: The thus selected hybridomas were added to a 96-well plate at 0.5 cells per well and then cultured. After 1 week, hybridomas that had formed single colonies in wells were observed. These cells in the wells were further cultured, and then hybridomas were selected using as a marker the binding affinity of antibodies produced by the cloned hybridomas to the CAPRIN-1 protein. The CAPRIN-1 protein solution (1 μg/ml) prepared in Example 2 was added to a 96-well plate at 100 μl per well, and then left to stand at 4° C. for 18 hours. Each well was washed with PBS-T three times, 400 μl of a 0.5% BSA solution was added per well, and then the resultant was left to stand at room temperature for 3 hours. The solution was removed, and then the wells were washed three times with 400 μl of PBS-T per well. 100 μl of each culture supernatant of the above-obtained hybridomas was added per well, and then the plate was left to stand at room temperature for 2 hours. After washing each well three times with PBS-T, 100 μl of an HRP-labeled anti-chicken IgY antibody (SIGMA) diluted 5000-fold with PBS was added per well and then left to stand at room temperature for 1 hour. […] After color development, 100 μl of 1N sulfuric acid was added per well to stop the reaction and then absorbances at 450 nm and 595 nm were measured using an absorption spectrometer. […]

[3] = target: T1, human CAPRIN-1 protein on human cancer …; assay: flow cytometry on MDA-MB-231V human breast cancer cells, hybridoma culture supernatant, FITC anti-chicken IgG
Experimental: Next, of those monoclonal antibodies, antibodies reactive with the cell surfaces of breast cancer cells expressing CAPRIN-1 were selected. Specifically, 5×10⁵ cells of the human breast cancer cell line MDA-MB-231V were subjected to centrifugation in a 1.5-ml microcentrifuge tube, and 100 μl of the culture supernatant of each of the above hybridomas was added to the tube, and then the tube was left to stand on ice for 1 hour. After washing with PBS, an FITC-labeled goat anti-chicken IgG (H+L) antibody (SouthernBiotech) diluted 30-fold with PBS containing 0.1% FBS was added, and then the resultant was left to stand on ice for 1 hour. After washing with PBS, fluorescence intensity was measured using a FACS caliber (Becton, Dickinson and Company). Meanwhile, procedures similar to the above were performed for medium for culturing hybridomas, so that a control sample was obtained.

| binding result [1] | binding result [2] | binding result [3] | Binder |
| --- | --- | --- | --- |
| binds | – | – | monoclonal antibody #1 prepared in Example 4 (antibody, V domains shown, also called anti-CAPRIN-1 monoclonal antibody) VH: AVTLDESGGGLQTPGGGLSLVCKASGFTFSSFDMGWVRQAPGKGLEFVAQINDAGSRTWYATAVKGRATISRDNGQTTVRLQLNNLRAEDTGTYYCTRGSGYVGAGAIDAWGHGTEVIVS VL: AALTQPSSVSANPGETVKITCSGGSGYYGWYQQQKSPGSAPVTVIYQNDKRPSDIPSRFSGSGSGSTNTLTITGVQAEDEAVYFCGRYDSTDSGIFGAGTTLTVL |
| – | binds | binds | chicken monoclonal antibody #1 (antibody, V domains shown, Chicken hybridoma antibody tested as culture supernatant and detected with anti-chicken IgY/IgG secondary antibodies; the chicken constant regions are not; also called anti-CAPRIN-1 monoclonal antibody #1) VH: AVTLDESGGGLQTPGGGLSLVCKASGFTFSSFDMGWVRQAPGKGLEFVAQINDAGSRTWYATAVKGRATISRDNGQTTVRLQLNNLRAEDTGTYYCTRGSGYVGAGAIDAWGHGTEVIVS VL: AALTQPSSVSANPGETVKITCSGGSGYYGWYQQQKSPGSAPVTVIYQNDKRPSDIPSRFSGSGSGSTNTLTITGVQAEDEAVYFCGRYDSTDSGIFGAGTTLTVL |
